For test [1], the target named is T1, carboxypeptidase Y (CPD-Y) variant N51Q (Asn51 replaced with glutamine) (Saccharomyces cerevisiae, UniProt P00729, N162Q).
T1 construct: made in house; host or cells: S. cerevisiae W2579 (secreted)
T1 sequence (P00729 112-532 N162Q): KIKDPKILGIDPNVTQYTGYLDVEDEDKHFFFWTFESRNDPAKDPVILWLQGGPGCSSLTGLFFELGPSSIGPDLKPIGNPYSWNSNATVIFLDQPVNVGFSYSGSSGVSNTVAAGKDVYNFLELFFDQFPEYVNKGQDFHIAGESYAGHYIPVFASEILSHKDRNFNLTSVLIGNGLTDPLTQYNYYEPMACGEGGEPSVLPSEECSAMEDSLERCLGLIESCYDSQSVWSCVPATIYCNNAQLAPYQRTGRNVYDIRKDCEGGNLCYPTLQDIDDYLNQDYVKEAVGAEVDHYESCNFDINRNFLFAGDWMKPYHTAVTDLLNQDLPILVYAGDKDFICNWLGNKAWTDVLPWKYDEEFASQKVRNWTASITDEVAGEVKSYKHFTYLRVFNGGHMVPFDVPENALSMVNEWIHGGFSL
Kind of test: Aminolysis; KN(app) of nucleophile. Particulars: Table V; amino acid nucleophile, FA-Ala-OBzl as substrate, pH 7.5. The test is classed as biochemical, yeast. The procedure: (§1) Aminolysis reactions were carried out in the following way. The nucleophile was dissolved in 50 mM Hepes, 5 mM EDTA and pH was adjusted to 7.5. Five (5) μl of substrate (8 mM FA-Ala-OBzl in methanol) was added to 190 μl nucleophile solution followed by 5 μl enzyme, resulting in a substrate concentration of 0.2 mM. For reactions carried out at pH 9.5, Hepes was replaced with Ches. During the reaction, 20 μl aliquots were removed from the reaction mixture and added to 50 μl 1% trifluoroacetic acid to quench the reaction. The reactant composition was determined by HPLC using a Waters HPLC equipped with a C-18 Waters Novapac 4μ reverse phase column and various gradients of acetonitrile in 0.1% trifluoroacetic acid. The separation was monitored at 302 nm allowing the direct quantification of the products from the integrated peak areas. The composition of the reaction mixture was determined at least twice during the reaction, the first time when 20-50% (preferably 35%) of the ester substrate had been consumed in the reaction and the second time when 50-90% (preferably 80%) of the substrate had been consumed. The products were collected and identified by amino acid analysis after acid hydrolysis using a Pharmacia Alpha Plus analyzer.
(§2) Further identification was obtained by co-chromatography of authentic standard compounds. The fraction of aminolysis (fa) was expressed as the ratio between the formed aminolysis product and the sum of all products being formed, i.e., unconsumed substrate was disregarded in the calculations. The KN(app), representing the nucleophile concentration at which fa is half the maximum value (a measure for the dissociation constant of the nucleophile), and famax (the highest possible fa obtained at saturation of the enzyme with nucleophile) were determined by fitting the values of fa obtained at a minimum of seven concentrations of nucleophile to a saturation. The value of fa obtained at the highest possible nucleophile concentration is designated fasat.
(§3) Aminolysis reactions were carried out in the following way. The nucleophile was dissolved in 50 mM HEPES, 5 mM EDTA and pH was adjusted to 7.5, 5 μl substrate (8 mM FA-Ala-OBzl or FA-Ala-Xaa-OH in methanol) was added to 190 μl nucleophile solution followed by 5 μl enzyme diluted in buffer to the appropriate concentration, resulting in a substrate concentration of 0.2 mM. During the reaction, 20 μl aliquots were removed from the reaction mixture and added to 50 μl 1% trifluoroacetic acid to quench the reaction. The reactant composition was determined by HPLC using a Waters HPLC equipped with a C-18 Waters Novapac 4μ reverse phase column and various gradients of acetonitrile in 0.1% trifluoroacetic acid. The separation was monitored at 302 nm allowing the direct quantification of the products from the integrated peak areas. The products were collected and identified by amino acid analysis after acid hydrolysis (Pharmacia Alpha Plus analyzer) and by co-chromatography of authentic standards. The fraction of aminolysis (fa) was expressed as the ratio between the formed aminolysis product and the sum of all products being formed, i.e. unconsumed substrate was disregarded in the calculations. The KN,app (a measure for the dissociation constant of the nucleophile) and famax (the highest possible fa obtained at saturation with nucleophile were determined by fitting the obtained fa values to the equation fa=famax /(1+KN,app /N).

For test [2], the target named is T2, yeast carboxypeptidase Y (CPD-Y), wild type (SEQ ID NO:32) (Saccharomyces cerevisiae, UniProt P00729).
T2 construct: purchased Carlbiotech, Copenhagen, Denmark
T2 sequence (P00729 112-532): T1 sequence (P00729 112-532 N162Q) with Q51N
In words: Aminolysis of ester/peptide substrates; KN(app) of nucleophile. In kind it is biochemical. Particulars: for KN(app): Table III (unit as in Tables I, II), ester substrate; for KN,app (H-Gly-NH2 as nucleophile): substance of the line is the substrate (leaving group phenylalanine or L-β-phenyllactic acid), enzyme not named, taken as CPD-Y. The procedure:
as §1, §2, §3

Positions count from the first letter of the chain named. Peptide text beside a SMILES is read from it. * marks the point of attachment. Bz = O=C(c1ccccc1)*

Take `C[C@H](N)C(=O)O` [H--Ala--OH, H-Ala-OH]: the “Kn,app” value came to 250 ± 15 mM in test [1] and 83 ± 7 mM in test [2] (Table V, amino acid nucleophile, FA-Ala-OBzl as substrate, pH 7.5). Also, the “KN(app)” value in test [2] (amino acid nucleophile) was determined as 83 ± 7 mM.

With `NC(=O)CC[C@H](N)C(=O)O` [H--Gln--OH, H-Gln-OH], in test [2] (amino acid nucleophile), the “KN(app)” value was 150 ± 8 mM.

For the compound `NCC(=O)O` [H--Gly--OH, H-Gly-OH], the “KN(app)” value in [2] (amino acid nucleophile) is 1500 ± 50 mM.

Turning to `N[C@@H](Cc1c[nH]cn1)C(=O)O` [H--His--OH, H-His-OH], the “KN(app)” value in test [2] (amino acid nucleophile) is 87 ± 9 mM.

With `NCCCC[C@H](N)C(=O)O` [H--Lys--OH, H-Lys-OH], the “KN(app)” value in [2] (amino acid nucleophile) is given as 190 ± 30 mM.

On to `N[C@@H](Cc1ccccc1)C(=O)O` [H--Phe--OH, H-Phe-OH], for which the “Kn,app” value in test [1] is listed as 29 ± 1 mM. For the same compound, the “KN(app)” value in test [2] (amino acid nucleophile) turned out to be 9.5 ± 1 mM.

With `N[C@@H](CO)C(=O)O` [H--Ser--OH, H-Ser-OH], the “KN(app)” value in [2] (amino acid nucleophile) stood at 310 ± 20 mM.

With `O=C(CNC(=O)c1ccccc1)N[C@@H](Cc1ccccc1)C(=O)O` [Hippuryl-L-Phe-OH] (Bz-Gly-Phe-OH), the “KN,app (H-Gly-NH2 as nucleophile)” value in test [2] is recorded as 0.63±0.06.

As for `O=C(CNC(=O)c1ccccc1)O[C@@H](Cc1ccccc1)C(=O)O` [Hippuryl-L-β-Phenyllactic acid], in test [2], the “KN,app (H-Gly-NH2 as nucleophile)” value is given as 0.47±0.05.

Consider “carboxypeptidase Y mutant 178Ala/215Ser/216Arg (enzyme)”, for which the estimated CPD-Y activity relative to wild type transformants (fold of wild type) with CBZ-Trp-Leu-OH was 1.1; with CBZ-Glu-Leu-OH, 1.4; in the test with CBZ-Lys-Leu-OH, 4; with CBZ-His-Leu-OH, 1; in the test with CBZ-Phe-Leu-OH, 1.2; with CBZ-Ser-Leu-OH it was 1.3. The estimated CPD-Y activity relative to wild type transformants (fold of wild type) in the test with CBZ-Gly-Leu-OH is 1.1; with CBZ-Pro-Leu-OH, 0.6.

Turning to “carboxypeptidase Y mutant 178Asn/215Ala/216Gly (enzyme)”, the estimated CPD-Y activity relative to wild type transformants (fold of wild type) in the test with CBZ-Trp-Leu-OH was 2; in the test with CBZ-Glu-Leu-OH it was 2; with CBZ-Lys-Leu-OH it was 4.4; with CBZ-His-Leu-OH, 1.3; in the test with CBZ-Phe-Leu-OH, 2.8; with CBZ-Ser-Leu-OH, 0.7. Also, the estimated CPD-Y activity relative to wild type transformants (fold of wild type) in the test with CBZ-Gly-Leu-OH was 0.7; with CBZ-Pro-Leu-OH, 0.9.

Regarding “carboxypeptidase Y mutant 178Cys (enzyme)”, the estimated CPD-Y activity relative to wild type transformants (fold of wild type) in the test with CBZ-Trp-Leu-OH is 1; with CBZ-Glu-Leu-OH it was 1.1; with CBZ-Lys-Leu-OH, 6.9; with CBZ-His-Leu-OH, 1.7; in the test with CBZ-Ser-Leu-OH, 0.5; in the test with CBZ-Gly-Leu-OH, 0.9. Further, the estimated CPD-Y activity relative to wild type transformants (fold of wild type) in the test with CBZ-Pro-Leu-OH is 0.3.

For the compound “carboxypeptidase Y mutant 178Cys/215Thr/216Trp (enzyme)”, the estimated CPD-Y activity relative to wild type transformants (fold of wild type) was 0.9 in the test with CBZ-Trp-Leu-OH; 1.1 in the test with CBZ-Glu-Leu-OH; 5.3 with CBZ-Lys-Leu-OH; 1.1 with CBZ-His-Leu-OH; 1 in the test with CBZ-Phe-Leu-OH; 0.4 in the test with CBZ-Ser-Leu-OH. The results for the estimated CPD-Y activity relative to wild type transformants (fold of wild type) with CBZ-Gly-Leu-OH and with CBZ-Pro-Leu-OH were 0.8 and 1.6, respectively.

For “carboxypeptidase Y mutant 178Gly/340Ile/341Cys (enzyme)”, the estimated CPD-Y activity relative to wild type transformants (fold of wild type) in the test with CBZ-Trp-Leu-OH was 0.5; in the test with CBZ-Glu-Leu-OH, 0.8; in the test with CBZ-Lys-Leu-OH it was 4.6; with CBZ-His-Leu-OH, 0.8; with CBZ-Phe-Leu-OH, 0.8; with CBZ-Ser-Leu-OH it was 0.3. For the same compound, the estimated CPD-Y activity relative to wild type transformants (fold of wild type) was 0.3 with CBZ-Gly-Leu-OH and 0.5 with CBZ-Pro-Leu-OH.

Regarding “carboxypeptidase Y mutant 178His/215Pro/216Thr (enzyme)”, the estimated CPD-Y activity relative to wild type transformants (fold of wild type) is 1.5 with CBZ-Trp-Leu-OH; 1 with CBZ-Glu-Leu-OH; 3.6 in the test with CBZ-Lys-Leu-OH; 1.1 with CBZ-His-Leu-OH; 0.9 with CBZ-Phe-Leu-OH; 1.1 with CBZ-Ser-Leu-OH. The estimated CPD-Y activity relative to wild type transformants (fold of wild type) with CBZ-Gly-Leu-OH was 0.8; with CBZ-Pro-Leu-OH it was 1.2.

With “carboxypeptidase Y mutant 178His/215Thr/216Phe (enzyme)”, the estimated CPD-Y activity relative to wild type transformants (fold of wild type) was 1.7 with CBZ-Trp-Leu-OH; 1.2 in the test with CBZ-Glu-Leu-OH; 3.1 with CBZ-Lys-Leu-OH; 1.1 in the test with CBZ-His-Leu-OH; 0.9 with CBZ-Phe-Leu-OH; 1 with CBZ-Ser-Leu-OH. The results for the estimated CPD-Y activity relative to wild type transformants (fold of wild type) in the test with CBZ-Gly-Leu-OH and with CBZ-Pro-Leu-OH were 0.8 and 1.2, respectively.
